Data on 1 molecule can be found in paper PMC5222566, “The Ciliopathy-Associated Cep104 Protein Interacts with Tubulin and Nek1 Kinase” (Structure(London, England:1993), 2017).

The experiment has as its target tubulin (Cytoskeleton) (UniProt P02550 1-451). The experiment is described as follows: SEC-MALS; TOG protein mixed with reconstituted tubulin, each ~42 uM, 1:1; 25 mM Tris-HCl pH 7.5, 100 mM NaCl, 1 mM MgCl2, 1 mM EGTA. The following applies: both partners purified. For orientation: SEC sorts molecules by how far they enter the pores of the column.

A word on the stoichiometry N: it is a count of units in the complex or per binding partner.

B1: human Cep104 TOG domain (Cep104^367-685), wild type (domain or fragment, UniProt O60308 367-685, looked up)
chain: DPHPKINAESLPYDERPLPAIRKHYGEAVVEPEMSNADISDARRGGMLGEPEPLTEKALREASSAIDVLGETLVAEAYCKTWSYREDALLALSKKLMEMPVGTPKEDLKNTLRASVFLVRRAIKDIVTSVFQASLKLLKMIITQYIPKHKLSKLETAHCVERTIPVLLTRTGDSSARLRVTAANFIQEMALFKEVKSLQIIPSYLVQPLKANSSVHLAMSQMGLLARLLKDLGTGSSGFTIDNVMKFSVSALEHRVYEVRETAVRIILDMYRQHQASILEYLPPDDSNTRRNILYKTIFEGFAKIDGRATDAEMRARRK
notes: The crystallised TOG construct (392-676, PDB 5LPH) has other limits; also called WT TOG; source: E. coli Rosetta, purified (Ni-NTA, PreScission cleavage, HiTrap SP); not shown: His6, N-terminal, cleaved
Regarding B1, the “stoichiometry N” value was 1.
